This note sets out measurements from paper PMC5043372, “A pre-metazoan origin of the CRK gene family and co-opted signaling network” (Scientific Reports, 2016).

This assay has as its target T1, SH2 domain of Monosiga brevicollis crka1 (Monosiga brevicollis, UniProt A0A1C9VNP8 1-97).
T1 construct: seven additional amino acids left at the N-terminus after His-tag removal; For the NMR structure the same domain was made with the E. coli cell-free protein synthesis system; also called Mb-crka1 SH2; crka1 SH2 domain
T1 sequence: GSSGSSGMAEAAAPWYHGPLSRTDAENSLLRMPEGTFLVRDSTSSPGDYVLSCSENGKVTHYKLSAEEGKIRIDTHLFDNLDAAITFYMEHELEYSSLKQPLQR
Briefly: ITC; peptide (400 uM) injected into the cell holding the SH2 domain (40 uM); 25 °C; 25 mM HEPES, pH7, 100 mM NaCl; MicroCal Auto-iTC200. The conditions noted are these: both partners purified. Background: In ITC the heat of successive injections is recorded.

Non-standard residues stand in square brackets, D forms with d. No end group written: not given here. pY = N[C@@H](Cc1ccc(OP(=O)(O)O)cc1)C(=O)O

B1: phosphopeptide DM-pYDVP-RN of S. rosetta PTSG_05573 (peptide)
peptide: DM[pY]DVPRN
notes: together with EM-pYDVP-RS it overlaps 5 of the 10 YxxP motifs; source: synthetic peptide, bought: Toray Research Center
As to B1, the binding result is given as “binds”.

B2: phosphopeptide EM-pYDVP-RS of S. rosetta PTSG_05573 (peptide)
peptide: EM[pY]DVPRS
notes: together with DM-pYDVP-RN it overlaps 5 of the 10 YxxP motifs; source: synthetic peptide, bought: Toray Research Center
As to B2, the binding result is listed as “binds”.
